Experimental data: paper PMC3159028 (Journal of molecular biology, 2011)
Like-named read-outs stand apart in the source and are kept apart here.

What was measured:
[1] = target: the molecule itself; assay: SEC
[2] = target: the molecule itself; assay: SEC; remark: listed apart in the source

Protein	stoichiometry N [1]	stoichiometry N [2]
human NudC, full length (NudC^1–331) (natural protein) not shown	2	
mouse NudC-like 2 protein (NudCL2), full length (natural protein, UniProt Q9CQ48 1-157, looked up) MSAPFEERSGVVPCGTPWGQWYQTLEEVFIEVQVPPGTRAQDIQCGLQSRHVALAVGGREILKGKLFDSTIADEGTWTLEDRKMVRIVLTKTKRDAANCWTSLLESEYAADPWVQDQMQRKLTLERFQKENPGFDFSGAEISGNYTKGGPDFSNLEK	2	
hNudC^1–141, N-terminal fragment of human NudC (dimerization domain) (domain or fragment) not shown		2
human NudC-like protein (NudCL), full length (natural protein, UniProt Q8IVD9 1-361, looked up) METGAAELYDQALLGILQHVGNVQDFLRVLFGFLYRKTDFYRLLRHPSDRMGFPPGAAQALVLQVFKTFDHMARQDDEKRRQELEEKIRRKEEEEAKTVSAAAAEKEPVPVPVQEIEIDSTTELDGHQEVEKVQPPGPVKEMAHGSQEAEAPGAVAGAAEVPREPPILPRIQEQFQKNPDSYNGAVRENYTWSQDYTDLEVRVPVPKHVVKGKQVSVALSSSSIRVAMLEENGERVLMEGKLTHKINTESSLWSLEPGKCVLVNLSKVGEYWWNAILEGEEPIDIDKINKERSMATVDEEEQAVLDRLTFDYHQKLQGKPQSHELKVHEMLKKGWDAEGSPFRGQRFDPAMFNISPGAVQF	2	
